Experimental data: IntAct's records for PubMed 19198587

B1: Far upstream element-binding protein 2 (Homo sapiens), Q92945 (parent)
chain: MSDYSTGGPPPGPPPPAGGGGGAGGAGGGPPPGPPGAGDRGGGGPGGGGPGGGSAGGPSQPPGGGGPGIRKDAFADAVQRARQIAAKIGGDAATTVNNSTPDFGFGGQKRQLEDGDQPESKKLASQGDSISSQLGPIHPPPRTSMTEEYRVPDGMVGLIIGRGGEQINKIQQDSGCKVQISPDSGGLPERSVSLTGAPESVQKAKMMLDDIVSRGRGGPPGQFHDNANGGQNGTVQEIMIPAGKAGLVIGKGGETIKQLQERAGVKMILIQDGSQNTNVDKPLRIIGDPYKVQQACEMVMDILRERDQGGFGDRNEYGSRIGGGIDVPVPRHSVGVVIGRSGEMIKKIQNDAGVRIQFKQDDGTGPEKIAHIMGPPDRCEHAARIINDLLQSLRSGPPGPPGGPGMPPGGRGRGRGQGNWGPPGGEMTFSIPTHKCGLVIGRGGENVKAINQQTGAFVEISRQLPPNGDPNFKLFIIRGSPQQIDHAKQLIEEKIEGPLCPVGPGPGGPGPAGPMGPFNPGPFNQGPPGAPPHAGGPPPHQYPPQGWGNTYPQWQPPAPHDPSKAAAAAADPNAAWAAYYSHYYQQPPGPVPGPAPAPAAPPAQGEPPQPPPTGQSDYTKAWEEYYKKIGQQPQQPGAPPQQDYTKAWEEYYKKQAQVATGGGPGAPPGSQPDYSAAWAEYYRQQAAYYGQTPGPGGPQPPPTQQGQQQAQ

Variants of: B1
Settings: with akt1_human AKT1, P31749
akt1_human AKT1, P31749, sequence (P31749 whole entry): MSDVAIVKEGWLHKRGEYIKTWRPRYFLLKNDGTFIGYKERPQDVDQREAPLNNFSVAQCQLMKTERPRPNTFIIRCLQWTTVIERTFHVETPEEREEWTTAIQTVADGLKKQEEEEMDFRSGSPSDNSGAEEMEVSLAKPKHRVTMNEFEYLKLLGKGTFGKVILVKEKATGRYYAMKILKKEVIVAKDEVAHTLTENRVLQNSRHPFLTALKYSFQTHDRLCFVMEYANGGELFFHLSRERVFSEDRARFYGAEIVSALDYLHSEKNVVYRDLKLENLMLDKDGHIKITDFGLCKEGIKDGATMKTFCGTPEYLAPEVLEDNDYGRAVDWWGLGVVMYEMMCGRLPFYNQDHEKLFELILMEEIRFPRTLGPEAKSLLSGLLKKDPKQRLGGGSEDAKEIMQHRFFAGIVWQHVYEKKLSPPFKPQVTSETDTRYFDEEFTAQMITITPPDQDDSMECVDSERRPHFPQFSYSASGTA

Row | effect of a mutation on the interaction | Variant
1 | disrupting interaction | S193A
